Patent US20210030804A1

Target: CD19 on Nalm6 leukemia cells (UniProt P15391)
Assay: cell-based or functional assay

Sequence of UniProt P15391 (P15391 20-556 limits assumed): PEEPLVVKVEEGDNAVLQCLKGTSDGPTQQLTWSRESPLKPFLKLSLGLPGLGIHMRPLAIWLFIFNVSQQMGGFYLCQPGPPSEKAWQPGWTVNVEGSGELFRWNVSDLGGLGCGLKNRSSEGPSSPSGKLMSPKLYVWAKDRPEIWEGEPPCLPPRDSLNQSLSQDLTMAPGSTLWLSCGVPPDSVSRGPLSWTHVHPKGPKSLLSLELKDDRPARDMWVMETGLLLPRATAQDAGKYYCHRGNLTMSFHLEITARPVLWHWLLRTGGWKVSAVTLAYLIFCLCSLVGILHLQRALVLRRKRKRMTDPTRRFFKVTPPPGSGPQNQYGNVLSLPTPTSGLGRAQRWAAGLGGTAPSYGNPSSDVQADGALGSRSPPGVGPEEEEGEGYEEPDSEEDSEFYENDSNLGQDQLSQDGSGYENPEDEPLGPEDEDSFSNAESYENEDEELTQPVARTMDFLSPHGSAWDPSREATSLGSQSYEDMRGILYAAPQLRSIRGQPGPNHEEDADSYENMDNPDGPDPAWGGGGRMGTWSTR

B1: CD19 CAR (receptor, from a related filing)
chain: EVKLQQSGAELVRPGSSVKISCKASGYAFSSYWMNWVKQRPGQGLEWIGQIYPGDGDTNYNGKFKGQATLTADKSSSTAYMQLSGLTSEDSAVYFCARKTISSVVDFYFDYWGQGTTVTVSSGGGGSGGGGSGGGGSDIELTQSPKFMSTSVGDRVSVTCKASQNVGTNVAWYQQKPGQSPKPLIYSATYRNSGVPDRFTGSGSGTDFTLTITNVQSKDLADYFCQQYNRYPYTSGGGTKLEIKRAAAIEVMYPPPYLDNEKSNGTIIHVKGKHLCPSPLFPGPSKPFWVLVVVGGVLACYSLLVTVAFIIFWVRSKRSRLLHSDYMNMTPRRPGPTRKHYQPYAPPRDFAAYRSRVKFSRSADAPAYQQGQNQLYNELNLGRREEYDVLDKRRGRDPEMGGKPRRKNPQEGLYNELQKDKMAEAYSEIGMKGERRRGKGHDGLYQGLSTATKDTYDALHMQALPPR
**Q.** Which Tumor Cell Killing Percentage (Nalm6 killed, 22 h co-culture, FACS with counting beads); E/T 0.024; CD19 level high does the source give for B1 here?
**A.** 32%

**Q.** And the Tumor Cell Killing Percentage (Nalm6 killed, 22 h co-culture, FACS with counting beads); E/T 0.024; CD19 level low?
**A.** 16.3%

**Q.** What about the Tumor Cell Killing Percentage (Nalm6 killed, 22 h co-culture, FACS with counting beads); E/T 0.024; CD19 level medium of the same binder?
**A.** 17.2%

**Q.** What about the Tumor Cell Killing Percentage (Nalm6 killed, 22 h co-culture, FACS with counting beads); E/T 0.024; CD19 level very low of the same binder?
**A.** 0%

**Q.** What about the Tumor Cell Killing Percentage (Nalm6 killed, 22 h co-culture, FACS with counting beads); E/T 0.12; CD19 level high of the same binder?
**A.** 63.4%

**Q.** What about the Tumor Cell Killing Percentage (Nalm6 killed, 22 h co-culture, FACS with counting beads); E/T 0.12; CD19 level low of the same binder?
**A.** 53.3%

**Q.** What about the Tumor Cell Killing Percentage (Nalm6 killed, 22 h co-culture, FACS with counting beads); E/T 0.12; CD19 level medium of the same binder?
**A.** 63.6%

**Q.** And the Tumor Cell Killing Percentage (Nalm6 killed, 22 h co-culture, FACS with counting beads); E/T 0.12; CD19 level very low?
**A.** 0.4%

**Q.** What about the Tumor Cell Killing Percentage (Nalm6 killed, 22 h co-culture, FACS with counting beads); E/T 0.6; CD19 level high of the same binder?
**A.** 84.4%

**Q.** And the Tumor Cell Killing Percentage (Nalm6 killed, 22 h co-culture, FACS with counting beads); E/T 0.6; CD19 level low?
**A.** 77.2%

**Q.** What about the Tumor Cell Killing Percentage (Nalm6 killed, 22 h co-culture, FACS with counting beads); E/T 0.6; CD19 level medium of the same binder?
**A.** 79.4%

**Q.** And the Tumor Cell Killing Percentage (Nalm6 killed, 22 h co-culture, FACS with counting beads); E/T 0.6; CD19 level very low?
**A.** 8.37%
